Assay results reported in patent US20250049852A1 (SHANGHAI IASO BIOTECHNOLOGY, published 2025).

Experiments:
[1] = target: T1, Biotinylated Human IL-10 Protein (human, UniProt P22301 19-178, biotinylated); test: ELISA, coated antigen, detection HRP anti-human IgG
T1 construct: also called IL10-Bio

[2] = target: T2, Biotinylated Recombinant human BAFFR Protein (human, UniProt Q96RJ3 7-71, limits assumed, biotinylated); test: as above
T2 construct: The label says that it carries a his tag; also called BAFFR-his-Bio
T2 sequence (looked up): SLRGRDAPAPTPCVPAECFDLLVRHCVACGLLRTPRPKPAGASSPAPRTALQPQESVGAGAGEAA

Streptavidin [3] = target: T3, Streptavidin (UniProt P22629 37-163, limits assumed); test: as above
T3 construct: also called SA

[4] = target: T4, human GPRC5D expressed on the cell surface (CHO-K1-GPRC5D cells; MM1S, U266, 8226, H929 cells) (human, UniProt Q9NZD1 1-345); test: cell-based or functional assay
[5] = target: T4, human GPRC5D expressed on the cell …; test: cell-based or functional assay; remark: listed apart in the source
[6] = target: T4, human GPRC5D expressed on the cell …; test: cell-based or functional assay; remark: listed apart in the source
[7] = target: T1, Biotinylated Human IL-10 Protein; test: phage ELISA, coated antigen, detection anti-M13 then HRP anti-mouse IgG
Human GPRC5D Protein-VLP [8] = target: T5, Human GPRC5D Protein-VLP (human, UniProt Q9NZD1 1-345); test: as above
T5 construct: Bought reagent; also called GPRC5D-VLP; target antigen

[9] = target: T2, Biotinylated Recombinant human BAFFR …; test: as above
Streptavidin [10] = target: T3, Streptavidin; test: as above
[11] = target: T1, Biotinylated Human IL-10 Protein; test: ELISA, coated antigen, purified IgG-form antibody, detection HRP anti-human IgG
Human GPRC5D Protein-VLP [12] = target: T5, Human GPRC5D Protein-VLP; test: as above
[13] = target: T2, Biotinylated Recombinant human BAFFR …; test: as above
Streptavidin [14] = target: T3, Streptavidin; test: as above
[15] = target: T6, monkey-derived GPRC5D overexpressed on CHOS cells (CHOS-macaqueGPRC5D) (macaque (monkey-derived)); test: FACS titration on CHOS-macaque-GPRC5D cells (upper graph)
T6 construct: whole, on cells; also called CHOS-macaqaueGPRC5D; GPRC5D monkey-derived positive cell line

[16] = target: T7, murine-derived GPRC5D overexpressed on CHOS cells (CHOS-mouseGPRC5D) (mouse (murine-derived), UniProt Q9JIL6 1-344); test: FACS titration on CHOS-mouse-GPRC5D cells (lower graph)
T7 construct: whole, on cells; also called GPRC5D murine-derived positive cell line
T7 sequence (looked up): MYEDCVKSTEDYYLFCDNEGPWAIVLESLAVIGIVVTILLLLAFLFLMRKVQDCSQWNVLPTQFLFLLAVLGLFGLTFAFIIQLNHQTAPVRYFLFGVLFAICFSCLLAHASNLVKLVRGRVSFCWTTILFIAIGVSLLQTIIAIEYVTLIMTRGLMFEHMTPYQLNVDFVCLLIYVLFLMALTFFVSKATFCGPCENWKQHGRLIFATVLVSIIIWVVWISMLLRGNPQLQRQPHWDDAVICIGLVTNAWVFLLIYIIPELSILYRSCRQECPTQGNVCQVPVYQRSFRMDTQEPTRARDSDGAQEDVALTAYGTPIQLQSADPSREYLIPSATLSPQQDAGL

[17] = target: T4, human GPRC5D expressed on the cell …; test: FACS titration (300 nM to 0.00384 nM) on CHO-K1-GPRC5D cells

T3 sequence (P22629 37-163 limits assumed): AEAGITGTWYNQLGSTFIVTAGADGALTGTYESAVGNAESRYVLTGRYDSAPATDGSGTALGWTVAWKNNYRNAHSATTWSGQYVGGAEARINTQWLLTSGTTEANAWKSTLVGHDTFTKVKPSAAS
T4 sequence (Q9NZD1 whole entry): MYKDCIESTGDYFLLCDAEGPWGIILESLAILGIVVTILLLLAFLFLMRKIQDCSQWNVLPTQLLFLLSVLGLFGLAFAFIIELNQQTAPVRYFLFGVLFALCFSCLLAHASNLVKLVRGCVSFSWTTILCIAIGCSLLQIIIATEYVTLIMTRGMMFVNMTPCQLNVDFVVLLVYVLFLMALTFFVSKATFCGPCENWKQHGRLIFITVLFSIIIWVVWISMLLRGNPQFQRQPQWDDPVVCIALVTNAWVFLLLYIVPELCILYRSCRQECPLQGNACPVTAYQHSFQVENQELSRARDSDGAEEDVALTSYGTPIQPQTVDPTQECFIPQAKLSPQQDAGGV
T1 sequence (P22301 19-178 limits assumed): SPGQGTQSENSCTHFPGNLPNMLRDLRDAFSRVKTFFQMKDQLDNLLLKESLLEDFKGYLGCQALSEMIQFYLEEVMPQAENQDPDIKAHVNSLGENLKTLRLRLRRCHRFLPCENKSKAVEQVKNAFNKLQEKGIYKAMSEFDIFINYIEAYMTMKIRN
T5 sequence (Q9NZD1 whole entry): as the sequence (Q9NZD1 whole entry) above

| Binder | IFN-γ (IFN+/CAR+ %) after co-incubation with 8226-luc (GPRC5D+) cells [4] [%] | IFN-γ (IFN+/CAR+ %) after co-incubation with H929-luc (GPRC5D+) cells [4] [%] | IFN-γ (IFN+/CAR+ %) after co-incubation with MM1.s-luc (GPRC5D+) cells [4] [%] | IFN-γ (IFN+/CAR+ %) after co-incubation with U266-luc (GPRC5D+) cells [4] [%] | TNF-α (TNFα+/CAR+ %) after co-incubation with 8226-luc (GPRC5D+) cells [4] [%] | TNF-α (TNFα+/CAR+ %) after co-incubation with H929-luc (GPRC5D+) cells [4] [%] | TNF-α (TNFα+/CAR+ %) after co-incubation with MM1.s-luc (GPRC5D+) cells [4] [%] | TNF-α (TNFα+/CAR+ %) after co-incubation with U266-luc (GPRC5D+) cells [4] [%] | CD107a+/CAR+CD8+% after co-incubation with 8226 (GPRC5D+) cells [5] [%] | CD107a+/CAR+CD8+% after co-incubation with MM.1S (GPRC5D+) cells [5] [%] | CD107a+/CAR+CD8+% after co-incubation with U266 (GPRC5D+) cells [5] [%] | Proliferation fold, 1st round stimulation by target cells 8226 [6] [fold] | Proliferation fold, 2nd round stimulation by target cells 8226 [6] [fold] | Proliferation fold, 3rd round stimulation by target cells 8226 [6] [fold] | Proliferation fold, 4th round stimulation by target cells 8226 [6] [fold] | Proliferation fold, 5th round stimulation by target cells 8226 [6] [fold] | Proliferation fold, 6th round stimulation by target cells 8226 [6] [fold] | Proliferation fold, 7th round stimulation by target cells 8226 [6] [fold] | other results |
| --- | --- | --- | --- | --- | --- | --- | --- | --- | --- | --- | --- | --- | --- | --- | --- | --- | --- | --- | --- |
| Positive Benchmark1 Ab (GC5B596) (antibody, […] variable region from GC5B596 of CN 109715667 A. As positive control antibody it was detected with anti-human IgG, so it carried a human constant part; also called control antibody benchmark 1) scFv: GSQVQLVQSGAEVKKPGASVKVSCKASGYSFTGYTMNWVRQAPGQGLEWMGLINPYNSDTNYAQKLQGRVTMTTDTSTSTAYMELRSLRSDDTAVYYCARVALRVALDYWGQGTLVTVSSGGGGSGGGGSGGGGSDIQMTQSPSSLSASVGDRVTITCKASQNVATHVGWYQQKPGKAPKRLIYSASYRYSGVPSRFSGSGSGTEFTLTISNLQPEDFATYYCQQYNRYPYTFGQGTKLEIKSR | – | – | – | – | – | – | – | – | – | – | – | – | – | – | – | – | – | – | binding result [1]: no binding; binding result [2]: no binding; binding result (Streptavidin [3]): no binding |
| GPRC5D CAR 2436 (#39), on CAR-T cells (other) EVQLLESGGGLVQPGGSLRLSCAASGFIFSSYGMGWVRQAPGKGLEWVSSISSSGDYTYYADSVKGRFTISRDNSKNTLYLQMNSLRAEDTAVYYCARMSFRRYDHWGQGTLVTVSSFVPVFLPAKPTTTPAPRPPTPAPTIASQPLSLRPEACRPAAGGAVHTRGLDFACDIYIWAPLAGTCGVLLLSLVITLYCNHRNKRGRKKLLYIFKQPFMRPVQTTQEEDGCSCRFPEEEEGGCELRVKFSRSADAPAYQQGQNQLYNELNLGRREEYDVLDKRRGRDPEMGGKPRRKNPQEGLYNELQKDKMAEAYSEIGMKGERRRGKGHDGLYQGLSTATKDTYDALHMQALPPR | 54.8 | 57.6 | 50.9 | 49 | 45 | 51.6 | 38.5 | 42.5 | 76.5 | 63.5 | 78.8 | 10.1 | 51.2 | 146 | 330 | 595 | 1160 | 2050 | – |
| CAR 2254 (Benchmark1), on CAR-T cells (other) GSQVQLVQSGAEVKKPGASVKVSCKASGYSFTGYTMNWVRQAPGQGLEWMGLINPYNSDTNYAQKLQGRVTMTTDTSTSTAYMELRSLRSDDTAVYYCARVALRVALDYWGQGTLVTVSSGGGGSGGGGSGGGGSDIQMTQSPSSLSASVGDRVTITCKASQNVATHVGWYQQKPGKAPKRLIYSASYRYSGVPSRFSGSGSGTEFTLTISNLQPEDFATYYCQQYNRYPYTFGQGTKLEIKSRFVPVFLPAKPTTTPAPRPPTPAPTIASQPLSLRPEACRPAAGGAVHTRGLDFACDIYIWAPLAGTCGVLLLSLVITLYCNHRNKRGRKKLLYIFKQPFMRPVQTTQEEDGCSCRFPEEEEGGCELRVKFSRSADAPAYQQGQNQLYNELNLGRREEYDVLDKRRGRDPEMGGKPRRKNPQEGLYNELQKDKMAEAYSEIGMKGERRRGKGHDGLYQGLSTATKDTYDALHMQALPPR | 25.1 | 12.2 | 31.1 | 5.25 | 12 | 5.21 | 17.7 | 1.12 | 45 | 50.7 | 9.68 | 7.15 | 41.9 | 101 | 172 | 240 | 321 | 313 | – |
| clone #41, single domain antibody displayed as monoclonal phage (phage level) (VHH, Tested as a monoclonal phage antibody (M13 display, detected with anti-M13); also called clone number 41) VHH: EVQLLESGGGLVQPGGSLRLSCAASGFSFSGYIMGWVRQAPGKGLEWVSSTSSSGTETYYADSVKGRFTISRDNSKNTLYLQMNSLRAEDTAVYYCARYYSKYGRSYHVDSWGQGTLVTVSS | – | – | – | – | – | – | – | – | – | – | – | – | – | – | – | – | – | – | binding result [7]: no binding; binding result (Human GPRC5D Protein-VLP [8]): binds; binding result [9]: no binding; binding result (Streptavidin [10]): no binding |
| Clone 41, antibody in the IgG form (protein level) (antibody, V domains shown, Expressed from an IgG expression plasmid in CHOS cells, purified by Protein A 'into the IgG form', detected with anti-human IgG Fc gamma; also called anti-GPRC5D IgG) VH: EVQLLESGGGLVQPGGSLRLSCAASGFSFSGYIMGWVRQAPGKGLEWVSSTSSSGTETYYADSVKGRFTISRDNSKNTLYLQMNSLRAEDTAVYYCARYYSKYGRSYHVDSWGQGTLVTVSS | – | – | – | – | – | – | – | – | – | – | – | – | – | – | – | – | – | – | binding result [11]: no binding; binding result (Human GPRC5D Protein-VLP [12]): binds; binding result [13]: no binding; binding result (Streptavidin [14]): no binding; EC50 (read off the curve) [15]: ~7 nM; binding result [16]: binds; EC50 [17]: 41 nM; TOP (MFI) [17]: 3690 MFI |
